We go through 84 variants from the RNAGym collection of RNA variant scans (doi:10.1073/pnas.2313332121).

Fewer inactive variants are shown than the library holds. Where only a bound is given, the exact number is not on record here.

First the molecules themselves.
B1: TPR 5TU (parent)
chain: GGAUCUUCUCGAUCUAACAAAAAAGACAAAUCUGCCACAAAGCUUGAGAGCAUCUUCGGAUGCAGAGGCGGCAGCCUUCGGUGGCGCGAUAGCGCCAACGUUCUCAACUAUGACACGCAAAACGCGUGCUCCGUUGAAUGGAGUUUAUCAUG

In the series the parent is B1. The series can be described thus: polymerase ribozyme fitness, log enrichment relative to wild type (log ratio); higher = more active; in vitro selection for triplet polymerase activity. A digest of the protocol: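 In triplicate, a single round of in vitro selection was run on each mutant library, PCR-built and transcribed, covering one subunit of a heterodimeric triplet polymerase ribozyme. Frozen incubation at −7 °C followed annealing with a biotinylated primer, partner subunit and triplets, and extended constructs were then gel-excised, streptavidin-captured and taken through RT-PCR. Fitness is the logarithm of genotype enrichment over wild-type enrichment, from inverse-variance-weighted replicate averages of Illumina-sequenced inputs and outputs. […] only genotypes with ≥10 input reads and ≥1 read per output were kept.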
Take U4A C57G G83A: the “polymerase ribozyme fitness (log ratio)” value was -1.23.

For the variant A41C U56A G70U C75G C93U C132U G136C, the “polymerase ribozyme fitness (log ratio)” value is not above -4.2.

Consider A24U G141A, for which the “polymerase ribozyme fitness (log ratio)” value was determined as 0.58.

As to U4A A22C C96G A119U C149U, the “polymerase ribozyme fitness (log ratio)” value is -3.08.

On to A17G C35U C85G A98C A121U C123A, for which the “polymerase ribozyme fitness (log ratio)” value was -1.35.

In the case of C14G A17C U44A G81A C85U C125A, the “polymerase ribozyme fitness (log ratio)” value is not above -4.2.

As to A20U C32U U77G A142U, the “polymerase ribozyme fitness (log ratio)” value was not above -4.2.

Regarding A22G C54U C85U C103U C132U A147C, the “polymerase ribozyme fitness (log ratio)” value is -3.75.

Take C18G A22G A26U U31G U53A G68U C95U A115G: the “polymerase ribozyme fitness (log ratio)” value is not above -4.2.

For C8G, the “polymerase ribozyme fitness (log ratio)” value was -2.95.

Turning to C38U A60U, the “polymerase ribozyme fitness (log ratio)” value is -1.14.

On to A64U C93G C114G, for which the “polymerase ribozyme fitness (log ratio)” value was not above -4.2.

For A30U C32A C54U C87A A107U, the “polymerase ribozyme fitness (log ratio)” value is not above -4.2.

Consider A23U G70U U78A G94A C95U C114U, for which the “polymerase ribozyme fitness (log ratio)” value was not above -4.2.

Turning to A47U G59A C96G, the “polymerase ribozyme fitness (log ratio)” value is -1.05.

Turning to A39C, the “polymerase ribozyme fitness (log ratio)” value is -1.87.

A17U G62U G84U: the “polymerase ribozyme fitness (log ratio)” value is -2.48.

Turning to A29C C79G C96U U104C, the “polymerase ribozyme fitness (log ratio)” value was not above -4.2.

For A29C G68A G92C G133A, the “polymerase ribozyme fitness (log ratio)” value is not above -4.2.

Consider C96U U102G G141C, for which the “polymerase ribozyme fitness (log ratio)” value is -4.12.

Take C18G G84A: the “polymerase ribozyme fitness (log ratio)” value was -1.41.

With A19U A30U C36G A97U, the “polymerase ribozyme fitness (log ratio)” value is not above -4.2.

U6C U55G: the “polymerase ribozyme fitness (log ratio)” value is -0.825.

In the case of A3G G94U U104C C129U U134A, the “polymerase ribozyme fitness (log ratio)” value is not above -4.2.

Regarding C10G A17U C54G C93U A106C C125A, the “polymerase ribozyme fitness (log ratio)” value was not above -4.2.

As to A3U G83A A119G G141C, the “polymerase ribozyme fitness (log ratio)” value is -1.17.

Take G84U A122C: the “polymerase ribozyme fitness (log ratio)” value is -2.13.

Take A30U C96U: the “polymerase ribozyme fitness (log ratio)” value was -3.12.

Regarding G126A G133C, the “polymerase ribozyme fitness (log ratio)” value is -0.815.

Regarding G25U G92C A115G, the “polymerase ribozyme fitness (log ratio)” value is -3.33.

Turning to G11U G94C A106G, the “polymerase ribozyme fitness (log ratio)” value was -1.62.

Consider C35U C85A C103U A119U, for which the “polymerase ribozyme fitness (log ratio)” value is -2.38.

Consider C76A U127A, for which the “polymerase ribozyme fitness (log ratio)” value is -3.75.

For the variant A37G G50U C72U C105G U139C, the “polymerase ribozyme fitness (log ratio)” value was not above -4.2.

For the variant U4G G34A C96G A97U C123A C132A, the “polymerase ribozyme fitness (log ratio)” value was not above -4.2.

As to C93U C105G, the “polymerase ribozyme fitness (log ratio)” value is -3.36.

In the case of C27G U44G A89C A142U, the “polymerase ribozyme fitness (log ratio)” value was not above -4.2.

In the case of C18G G88A G100C C103G, the “polymerase ribozyme fitness (log ratio)” value was not above -4.2.

On to U6C A21G C27A C54U G80C C87A U109C A147U, for which the “polymerase ribozyme fitness (log ratio)” value was not above -4.2.

For the variant U53G G58C G92A C125G A150C, the “polymerase ribozyme fitness (log ratio)” value is not above -4.2.

For A24U A26G C51U A64U A66C C69U C108A C123A, the “polymerase ribozyme fitness (log ratio)” value was not above -4.2.

Regarding C8A G94A C95A, the “polymerase ribozyme fitness (log ratio)” value was not above -4.2.

For C43U U45G G46C A49U U82A A89U C108G, the “polymerase ribozyme fitness (log ratio)” value was not above -4.2.

With A21U A30U U33A C54G C87G, the “polymerase ribozyme fitness (log ratio)” value was not above -4.2.

U31C A52U G58A C95G U145A: the “polymerase ribozyme fitness (log ratio)” value is -3.19.

For A52U C118U, the “polymerase ribozyme fitness (log ratio)” value was -1.14.

Consider G34U A60C C108G A150C, for which the “polymerase ribozyme fitness (log ratio)” value was -4.17.

For the variant A49C C54A, the “polymerase ribozyme fitness (log ratio)” value was not above -4.2.

On to A21U C38U U135C, for which the “polymerase ribozyme fitness (log ratio)” value is -3.08.

Take C105U U130A C131G G140U: the “polymerase ribozyme fitness (log ratio)” value was -3.96.

Take A16C A20U A40U C54U G58U A60C: the “polymerase ribozyme fitness (log ratio)” value is -4.15.

Regarding G92A A147U, the “polymerase ribozyme fitness (log ratio)” value was -1.84.

As to U15C C54A C57G C87U A150G, the “polymerase ribozyme fitness (log ratio)” value was -3.99.

Consider G81A G84A, for which the “polymerase ribozyme fitness (log ratio)” value is -0.338.

Consider A24G G83C U101G C123A G141U, for which the “polymerase ribozyme fitness (log ratio)” value is not above -4.2.

Consider C38U G83U, for which the “polymerase ribozyme fitness (log ratio)” value was -0.752.

Consider A26U C87U G141U, for which the “polymerase ribozyme fitness (log ratio)” value was -1.66.

Turning to G94C C96U A113U A115U U130C A137G, the “polymerase ribozyme fitness (log ratio)” value was not above -4.2.

For G11U A16G C36A A49C C95G C118U G133U, the “polymerase ribozyme fitness (log ratio)” value was not above -4.2.

As to G42U C76A G81A G124C, the “polymerase ribozyme fitness (log ratio)” value is not above -4.2.

Turning to G58U G59C U78A C108G U148A, the “polymerase ribozyme fitness (log ratio)” value was not above -4.2.

As to U31A A47G A73U G83A, the “polymerase ribozyme fitness (log ratio)” value is -3.5.

Consider A16G A26U C51U A52C C87U, for which the “polymerase ribozyme fitness (log ratio)” value is not above -4.2.

As to C14U G25U U31G C43A A47C G62A A91G G94C U104C A138U G140C U145G, the “polymerase ribozyme fitness (log ratio)” value is not above -4.2.

For U4C C87A A89U C129G, the “polymerase ribozyme fitness (log ratio)” value is not above -4.2.

As to A24U C57U G62A, the “polymerase ribozyme fitness (log ratio)” value was -0.097.

For the variant G94U A142G, the “polymerase ribozyme fitness (log ratio)” value is -3.45.

In the case of C18U C51A U53A C57U G59C C95A, the “polymerase ribozyme fitness (log ratio)” value is -4.09.

For the variant A21C A47C G58C, the “polymerase ribozyme fitness (log ratio)” value was 0.582.

Regarding G83C G140U, the “polymerase ribozyme fitness (log ratio)” value is -4.01.

For A49U A52C A89G C95U, the “polymerase ribozyme fitness (log ratio)” value is -2.69.

In the case of A24G G25U C75G G80A C85G U130A A142C, the “polymerase ribozyme fitness (log ratio)” value was not above -4.2.

For A3G A21C A37C C63U G74C C87G G128C G141A, the “polymerase ribozyme fitness (log ratio)” value is not above -4.2.

For G50C C85A U144G, the “polymerase ribozyme fitness (log ratio)” value is not above -4.2.

In the case of U61A A91C, the “polymerase ribozyme fitness (log ratio)” value was not above -4.2.

As to U15G U148A, the “polymerase ribozyme fitness (log ratio)” value is -2.78.

Take U15G A37U A52C U90C U148G: the “polymerase ribozyme fitness (log ratio)” value was not above -4.2.

For U55A G88A, the “polymerase ribozyme fitness (log ratio)” value was not above -4.2.

For C14G C75G U77A C87A A137U G143U, the “polymerase ribozyme fitness (log ratio)” value was not above -4.2.

For the variant A29C C57U U104G G128U, the “polymerase ribozyme fitness (log ratio)” value is not above -4.2.

As for A19U A23G, the “polymerase ribozyme fitness (log ratio)” value was -3.44.

For the variant A20U U77G C96U C99U, the “polymerase ribozyme fitness (log ratio)” value was not above -4.2.

For the variant C85U A142U, the “polymerase ribozyme fitness (log ratio)” value is -0.394.

As to U15C G86A, the “polymerase ribozyme fitness (log ratio)” value came out at 0.14.
